Reference: publication PMC6172425, “Structural basis of inactivation of human counterpart of mouse motor neuron degeneration 2 mutant in serine protease HtrA2” (Bioscience Reports, 2018)

Target: the molecule itself
Assay: SEC; Superdex S200 HR 10/300, 10 mM HEPES pH 8.0, 100 mM NaCl, protein ~20 mg/ml, 0.2 ml/min; calibrated with BSA, alcohol dehydrogenase, β-amylase

B1: Recombinant mature (Δ133) human HtrA2 S276C (enzyme, UniProt O43464 134-458, looked up)
chain: AVPSPPPASPRSQYNFIADVVEKTAPAVVYIEILDRHPFLGREVPISNGSGFVVAADGLIVTNAHVVADRRRVRVRLLSGDTYEAVVTAVDPVADIATLRIQTKEPLPTLPLGRSADVRQGEFVVAMGSPFALQNTITSGIVCSAQRPARDLGLPQTNVEYIQTDAAIDFGNSGGPLVNLDGEVIGVNTMKVTAGISFAIPSDRLREFLHRGEKKNSSSGISGSQRRYIGVMMLTLSPSILAELQLREPSFPDVQHGVLIHKVILGSPAHRAGLRPGDVILAIGEQMVQNAEDVYEAVRTQSQLAVQIRRGRETLTLYVTPEVTE
notes: human serine protease HtrA2, mature processed form (Δ133): the 458 amino acid precursor without its first 133 residues, with S276C; Made by site-directed mutagenesis of the wild-type construct in pET-20b; also called hHtrA2S276C; human counterpart of the mouse mnd2 mutant; source: E. coli Rosetta (DE3), purified (Ni-NTA, gel filtration)
- binding result: binds

B2: Recombinant mature (Δ133) human HtrA2, wild type (enzyme, UniProt O43464 134-458, looked up)
chain: AVPSPPPASPRSQYNFIADVVEKTAPAVVYIEILDRHPFLGREVPISNGSGFVVAADGLIVTNAHVVADRRRVRVRLLSGDTYEAVVTAVDPVADIATLRIQTKEPLPTLPLGRSADVRQGEFVVAMGSPFALQNTITSGIVSSAQRPARDLGLPQTNVEYIQTDAAIDFGNSGGPLVNLDGEVIGVNTMKVTAGISFAIPSDRLREFLHRGEKKNSSSGISGSQRRYIGVMMLTLSPSILAELQLREPSFPDVQHGVLIHKVILGSPAHRAGLRPGDVILAIGEQMVQNAEDVYEAVRTQSQLAVQIRRGRETLTLYVTPEVTE
notes: human serine protease HtrA2, mature processed form (Δ133): the 458 amino acid precursor without its first 133 residues, N-terminus AVPS; In pET-20b; PDB 1LCY is the S306A form of the mature protein; also called wt hHtrA2; hHtrA2; source: E. coli Rosetta (DE3), purified (Ni-NTA)
- binding result: binds
